{"source": "patent US20150119340A1", "about": "“FUSION PEPTIDE AND USE THEREOF FOR CELL MEMBRANE PENETRATING” (Samsung Electronics Co., Ltd., priority 2013, published 2015)", "molecules": {"B1": {"name": "Tat-p16M7: Comparison conjugate of TAT peptide and p16M7 (SEQ ID NO: 20-SEQ ID NO: 16) (protein)", "chain": "RKKRRQRRRMEPAAGSSMEPSADKLATAAARGRVEEVRALLEAGADPNAPNSYGRRPIQVMMMGSARVAELLLKHGAEPNSADPATSTRPVHDAAREGFLDTLVVLHRAGARLDARDAWGRTPVDLAEELGHRDVARYLRAAAGGTRGSNHARIDAAEGPSDIPD", "modifications": "Synthetic (TAT peptide); Synthetic (p16 variant (p16M7))"}}, "tested_on": "MDA-MB-231 cells", "assay": "Anticancer effect: cell viability (proliferation assay kit)", "type": "cell-based", "conditions": "various concentrations, 72 hours after the conjugate treatment, FIG. 11", "description": "MDA-MB-231 cells were incubated at the amount of about 5,000-8,000 cells/well in 96 well plate for 24 hours, and then, treated with each of the obtained conjugates MTS-BAA-p16M7 and Tat-p16M7 at various concentrations (refer to FIG. 11). 24 hours or 72 hours after, the viability of the cells was measured by reading the fluorescent intensity of viable cells using titer® proliferation assay kit (Promega) according to manufacturer's manual. The results were normalized based on the results from a control (non-treated) group, and plotted (the value of the control group: “1”). The experiment was conducted in triplicate, and the error was treated using a standard deviation.\nThe obtained results (results obtained at 72 hours after the conjugate treatment) are illustrated in FIG. 11."}
{"molecule": "B1", "values": [{"measurement": "inhibitory effect on cancer cell proliferation (relative viability)", "result": "nearly no inhibitory effect on cancer cell proliferation"}]}
